Results on 96 substances are retold here after the Human Domainome abundance scans (Beltran et al. 2025).

± gives the uncertainty stated by the source.

A short description of the data set: abundance fitness (aPCA) (normalised: wild type 0, dead -1); higher = more abundant; growth selection in yeast, the domain comes from the species named. The note with it: Homo sapiens.
Turning to “Scaffold attachment factor B2 E58H, Q14151”, the abundance fitness was -0.338 ± 0.15.
With “Scaffold attachment factor B2 E58I, Q14151”, the abundance fitness is -0.576 ± 0.11.
For “Scaffold attachment factor B2 E58K, Q14151”, the abundance fitness was -0.44 ± 0.17.
In turn, “Scaffold attachment factor B2 E58L, Q14151” returned an abundance fitness of -0.439 ± 0.077.
As for “Scaffold attachment factor B2 E58M, Q14151”, the abundance fitness was -0.162 ± 0.11.
Turning to “Scaffold attachment factor B2 E58N, Q14151”, the abundance fitness was -0.201 ± 0.099.
With “Scaffold attachment factor B2 E58P, Q14151” the figure was -0.612 ± 0.09.
With “Scaffold attachment factor B2 E58Q, Q14151”, the abundance fitness is -0.319 ± 0.11.
The same measure for “Scaffold attachment factor B2 E58R, Q14151”: -0.247 ± 0.072.
On to “Scaffold attachment factor B2 E58T, Q14151”, for which the abundance fitness was -0.203 ± 0.091.
With “Scaffold attachment factor B2 E58V, Q14151”, the abundance fitness is -0.616 ± 0.076.
For “Scaffold attachment factor B2 E66A, Q14151”, the abundance fitness is -0.092 ± 0.091.
The same measure for “Scaffold attachment factor B2 E66C, Q14151”: -0.157 ± 0.13.
As for “Scaffold attachment factor B2 E66D, Q14151”, the abundance fitness was -0.042 ± 0.13.
In turn, “Scaffold attachment factor B2 E66F, Q14151” yielded an abundance fitness of -0.417 ± 0.13.
With “Scaffold attachment factor B2 E66G, Q14151” the figure was -0.108 ± 0.083; with “Scaffold attachment factor B2 E66H, Q14151”, -0.214 ± 0.11; with “Scaffold attachment factor B2 E66I, Q14151”, -0.207 ± 0.15.
With “Scaffold attachment factor B2 E66K, Q14151”, the abundance fitness was -0.5 ± 0.26.
Substance “Scaffold attachment factor B2 E66L, Q14151” gave an abundance fitness of -0.247 ± 0.1.
For “Scaffold attachment factor B2 E66M, Q14151”, the abundance fitness is -0.329 ± 0.12.
With “Scaffold attachment factor B2 E66N, Q14151” the figure was -0.322 ± 0.26.
With “Scaffold attachment factor B2 E66P, Q14151” the figure was -0.485 ± 0.16; with “Scaffold attachment factor B2 E66R, Q14151”, -0.131 ± 0.071; with “Scaffold attachment factor B2 E66T, Q14151”, -0.301 ± 0.21.
With “Scaffold attachment factor B2 E66V, Q14151” the figure was -0.232 ± 0.1; with “Scaffold attachment factor B2 E66W, Q14151”, -0.365 ± 0.12; with “Scaffold attachment factor B2 E67A, Q14151”, -0.23 ± 0.12.
Regarding “Scaffold attachment factor B2 E67C, Q14151”, the abundance fitness was -0.433 ± 0.12.
The substance “Scaffold attachment factor B2 E67H, Q14151” displayed an abundance fitness of -0.218 ± 0.4.
Take “Scaffold attachment factor B2 E67L, Q14151”: the abundance fitness was -0.495 ± 0.094.
The same measure for “Scaffold attachment factor B2 E67M, Q14151”: -0.525 ± 0.11.
For the substance “Scaffold attachment factor B2 E67P, Q14151”, the abundance fitness is -0.377 ± 0.12.
“Scaffold attachment factor B2 E67Q, Q14151”: the abundance fitness was -0.246 ± 0.1.
For the substance “Scaffold attachment factor B2 E67R, Q14151”, the abundance fitness was -0.445 ± 0.1.
With “Scaffold attachment factor B2 E67S, Q14151” the figure was -0.226 ± 0.095; with “Scaffold attachment factor B2 E67T, Q14151”, -0.381 ± 0.1; with “Scaffold attachment factor B2 E67V, Q14151”, -0.333 ± 0.1.
In turn, “Scaffold attachment factor B2 E67W, Q14151” gave an abundance fitness of -0.85 ± 0.11.
With “Scaffold attachment factor B2 E67Y, Q14151”, the abundance fitness is -0.889 ± 0.34.
“Scaffold attachment factor B2 G50A, Q14151” gave an abundance fitness of -0.099 ± 0.089.
For the substance “Scaffold attachment factor B2 G50C, Q14151”, the abundance fitness was -0.082 ± 0.12.
In the case of “Scaffold attachment factor B2 G50D, Q14151”, the abundance fitness was -0.171 ± 0.12.
As to “Scaffold attachment factor B2 G50E, Q14151”, the abundance fitness is -0.119 ± 0.084.
Substance “Scaffold attachment factor B2 G50F, Q14151” gave an abundance fitness of -0.51 ± 0.17.
With “Scaffold attachment factor B2 G50H, Q14151” the figure was -0.108 ± 0.093; with “Scaffold attachment factor B2 G50L, Q14151”, -0.194 ± 0.08; with “Scaffold attachment factor B2 G50M, Q14151”, -0.114 ± 0.11.
As to “Scaffold attachment factor B2 G50N, Q14151”, the abundance fitness is -0.065 ± 0.1.
Take “Scaffold attachment factor B2 G50P, Q14151”: the abundance fitness was -1.01 ± 0.16.
“Scaffold attachment factor B2 G50Q, Q14151” came in with an abundance fitness of -0.329 ± 0.12.
Turning to “Scaffold attachment factor B2 G50R, Q14151”, the abundance fitness amounted to 0.05 ± 0.079.
“Scaffold attachment factor B2 G50S, Q14151” registered an abundance fitness of -0.077 ± 0.11.
The same measure for “Scaffold attachment factor B2 G50T, Q14151”: -0.096 ± 0.17.
The same measure for “Scaffold attachment factor B2 G50V, Q14151”: -0.015 ± 0.08.
On to “Scaffold attachment factor B2 G50W, Q14151”, for which the abundance fitness was -0.26 ± 0.089.
Regarding “Scaffold attachment factor B2 G51C, Q14151”, the abundance fitness was -0.517 ± 0.13.
Substance “Scaffold attachment factor B2 G51D, Q14151” displayed an abundance fitness of -0.7 ± 0.14.
In turn, “Scaffold attachment factor B2 G51E, Q14151” gave an abundance fitness of -0.426 ± 0.094.
The substance “Scaffold attachment factor B2 G51F, Q14151” returned an abundance fitness of -0.882 ± 0.19.
“Scaffold attachment factor B2 G51I, Q14151” gave an abundance fitness of -1.25 ± 0.4.
In turn, “Scaffold attachment factor B2 G51K, Q14151” displayed an abundance fitness of -0.786 ± 0.15.
With “Scaffold attachment factor B2 G51L, Q14151”, the abundance fitness was -0.908 ± 0.087.
For the substance “Scaffold attachment factor B2 G51M, Q14151”, the abundance fitness was -0.853 ± 0.12.
With “Scaffold attachment factor B2 G51N, Q14151” the figure was -0.833 ± 0.25; with “Scaffold attachment factor B2 G51P, Q14151”, -0.998 ± 0.26.
“Scaffold attachment factor B2 G51Q, Q14151” came in with an abundance fitness of -0.704 ± 0.096.
The same measure for “Scaffold attachment factor B2 G51R, Q14151”: -0.794 ± 0.072.
With “Scaffold attachment factor B2 G51S, Q14151”, the abundance fitness is -0.597 ± 0.085.
The same measure for “Scaffold attachment factor B2 G51T, Q14151”: -0.633 ± 0.1; for “Scaffold attachment factor B2 G51V, Q14151”: -0.729 ± 0.084; for “Scaffold attachment factor B2 G51W, Q14151”: -1.41 ± 0.1.
Consider “Scaffold attachment factor B2 G68A, Q14151”, for which the abundance fitness was 0.004 ± 0.094.
On to “Scaffold attachment factor B2 G68E, Q14151”, for which the abundance fitness is 0.166 ± 0.095.
With “Scaffold attachment factor B2 G68F, Q14151” the figure was -0.509 ± 0.17; with “Scaffold attachment factor B2 G68I, Q14151”, -0.551 ± 0.099; with “Scaffold attachment factor B2 G68K, Q14151”, 0.232 ± 0.25.
The same measure for “Scaffold attachment factor B2 G68L, Q14151”: -0.365 ± 0.098; for “Scaffold attachment factor B2 G68M, Q14151”: -0.33 ± 0.12.
On to “Scaffold attachment factor B2 G68P, Q14151”, for which the abundance fitness is -0.19 ± 0.13.
“Scaffold attachment factor B2 G68Q, Q14151” yielded an abundance fitness of -0.078 ± 0.1.
Substance “Scaffold attachment factor B2 G68S, Q14151” gave an abundance fitness of -0.178 ± 0.12.
“Scaffold attachment factor B2 G68T, Q14151” yielded an abundance fitness of -0.026 ± 0.12.
With “Scaffold attachment factor B2 G68V, Q14151” the figure was -0.169 ± 0.092; with “Scaffold attachment factor B2 I36A, Q14151”, 0.153 ± 0.082; with “Scaffold attachment factor B2 I36C, Q14151”, 0.086 ± 0.099.
As to “Scaffold attachment factor B2 I36D, Q14151”, the abundance fitness turned out to be 0.206 ± 0.18.
The same measure for “Scaffold attachment factor B2 I36E, Q14151”: 0.157 ± 0.13; for “Scaffold attachment factor B2 I36F, Q14151”: -0.507 ± 0.17.
In turn, “Scaffold attachment factor B2 I36G, Q14151” returned an abundance fitness of 0.066 ± 0.068.
On to “Scaffold attachment factor B2 I36H, Q14151”, for which the abundance fitness is -0.208 ± 0.2.
For “Scaffold attachment factor B2 I36K, Q14151”, the abundance fitness amounted to 0.04 ± 0.089.
The same measure for “Scaffold attachment factor B2 I36L, Q14151”: -0.103 ± 0.087; for “Scaffold attachment factor B2 I36M, Q14151”: 0.043 ± 0.17; for “Scaffold attachment factor B2 I36N, Q14151”: -0.073 ± 0.13.
In turn, “Scaffold attachment factor B2 I36P, Q14151” had an abundance fitness of 0.067 ± 0.096.
